Assay results published in US20180215825A1 (BEIGENE, published 2018).
Where two headings read alike, the source gives them in different places.

Tests used:
[1] = biological target: T1, human PD-L1, full length, expressed on cells (human, UniProt Q9NZQ7 19-290); experiment: FACS competition with biotin-CD80/Fc on HEK293/PD-L1 cells
T1 construct: also called HEK293/PD-L1 cells; HEK293/OS8/PD-L1 cells

[2] = biological target: T1, human PD-L1, full length, expressed on …; experiment: cell-based or functional assay
[3] = biological target: T1, human PD-L1, full length, expressed on …; experiment: FACS competition with biotin-PD-1/Fc on HEK293/PD-L1 cells
[4] = biological target: T2, human PD-L1-ECD/His (human, UniProt Q9NZQ7 19-238); experiment: SPR (BIAcore T-200), human PD-L1/His on CM5 chip, Fab injected
T2 construct: Expressed in 293-F cells; also called PD-L1/His; human PD-L1/His
T2 sequence (Q9NZQ7 19-238): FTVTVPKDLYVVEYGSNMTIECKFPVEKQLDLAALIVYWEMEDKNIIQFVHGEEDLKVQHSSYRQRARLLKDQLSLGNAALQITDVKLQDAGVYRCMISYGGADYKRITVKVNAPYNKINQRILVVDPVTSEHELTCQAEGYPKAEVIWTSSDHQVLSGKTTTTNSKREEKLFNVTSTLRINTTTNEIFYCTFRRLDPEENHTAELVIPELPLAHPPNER
Procedure: (§1) For affinity determinations of anti-PD-L1 Fabs, SPR assays were performed using BIAcore™ T-200 (GE Life Sciences). Briefly, human PD-L1/His was coupled to an activated CM5 biosensor chip (Cat. No. BR100530, GE Life Sciences) to achieve approximately 100-200 response units (RU), followed by blocking un-reacted groups with 1M ethanolamine. A serial dilutions of 0.12 nM to 90 nM Fab samples were injected, mixed into the SPR running buffer (10 mM HEPES, 150 mM NaCl, 0.05% Tween20, pH7.4) at 30 μL/minute, and binding responses on human PD-L1/His were calculated by substracting of RU from a blank flow-cell. Association rates (kₒₙ) and dissociation rates (koff) were calculated using the one-to-one Langmuir binding model (BIA Evaluation Software, GE Life Sciences). The equilibrium dissociation constant (Kd) was calculated as the ratio koff/kₒₙ.
(§2) For affinity determinations of anti-PD-L1 Fabs, SPR assays were conducted using BIAcore™ T-200 instrument (GE Life Sciences, Shanghai, China) as described earlier. Association rates (kₒₙ) and dissociation rates (koff) were calculated using the one-to-one Langmuir binding model (BIA Evaluation Software, GE Life Sciences). The equilibrium dissociation constant (Kd) was calculated as the ratio koff/kₒₙ.

[5] = biological target: T1, human PD-L1, full length, expressed on …; experiment: cell-based or functional assay; remark: listed apart in the source
[6] = biological target: T1, human PD-L1, full length, expressed on …; experiment: FACS competition with biotin-PD-1/Fc on HEK293/PD-L1 cells; remark: listed apart in the source
Source text: Using this method, we evaluated functional strength of anti-PD-L1 mAbs.

[7] = biological target: T1, human PD-L1, full length, expressed on …; experiment: FACS competition with biotin-CD80/Fc on HEK293/PD-L1 cells; remark: listed apart in the source
[8] = biological target: T2, human PD-L1-ECD/His; experiment: SPR (BIAcore T-200), human PD-L1/His on CM5 chip, Fab injected; remark: listed apart in the source
Procedure: as §1

[9] = biological target: T3, cynomolgus monkey PD-L1/His (cynomolgus monkey (Macaca fascicularis), UniProt G7PSE7 19-238); experiment: SPR (BIAcore T-200), monkey PD-L1, Fab injected
T3 construct: extracellular domain; Said to be expressed and purified in a similar way to the human PD-L1/His (PD-L1-ECD/His); not shown: His tag
T3 sequence (G7PSE7 entry or part of it): as the sequence (Q9NZQ7 19-238) above, with A33T, A34S, S62N, R68Q, Q82R, F173L, T185A, T192I, H215L counted along it

[10] = biological target: T1, human PD-L1, full length, expressed on …; experiment: FACS competition with biotin-CD80/Fc on HEK293/PD-L1 cells; remark: listed apart in the source
[11] = biological target: T2, human PD-L1-ECD/His; experiment: SPR (BIAcore T-200), human PD-L1, Fab injected
Procedure: as §1, §2

[12] = biological target: T1, human PD-L1, full length, expressed on …; experiment: cell-based or functional assay; remark: listed apart in the source
[13] = biological target: T1, human PD-L1, full length, expressed on …; experiment: FACS competition with biotin-PD-1/Fc on HEK293/PD-L1 cells; remark: listed apart in the source
[14] = biological target: T1, human PD-L1, full length, expressed on …; experiment: cell-based or functional assay; remark: listed apart in the source
[15] = biological target: T1, human PD-L1, full length, expressed on …; experiment: cell-based or functional assay; remark: listed apart in the source
[16] = biological target: T2, human PD-L1-ECD/His; experiment: ELISA on coated PD-L1/His
Procedure: (§3) Briefly, 50-200 nanograms of PD-L1/His were diluted in 50 microliters of PBS and coated in each well of 96-well ELISA plates (JinCanHua, Shenzhen, China). After blocking with 3% bovine serum albumin in TBST (20 mM Tris, 150 mM NaCl, 0.05% Tween20, pH7.5) and incubating with culture supernatants of hybridoma clones, the HRP-conjugated horse anti-mouse IgG antibody (Cat. No. 7076S, Cell Signaling Technology) and tetramethylbenzidine (TMB) (Cat. No. PA107-01, TianGen, Beijing, China) were used to detect binding signals by a plate reader (PHREAstar, BMG Labtech, Germany) as light absorbance at 450 nm. The ELISA-positive clones were further verified by fluorescence-activated cell sorting (FACS). PD-L1 expression cells, HEK293/PD-L1 (10⁵ cells/well), were incubated with supernatants from hybridoma clones in V-bottom 96-well plates (Cat. No. 3897, Corning). The cell surface bound PD-L1 antibodies were detected with Dylight 649-conjugated goat anti-mouse IgG antibody (Cat. No. 405312, Biolegend, San Diego, Calif., USA) and cell fluorescence was monitored in a Guava EasyCyte 8HT flow cytometer (Millipore, USA).
(§4) The binding activities of the purified monoclonal antibodies were evaluated in ELISA and FACS assays as described in previous sections. The dose-dependent binding curves in ELISA and FACS were used to compare mAb potency.

[17] = biological target: T1, human PD-L1, full length, expressed on …; experiment: FACS competition with biotin-CD80/Fc on HEK293/PD-L1 cells; remark: listed apart in the source
[18] = biological target: T1, human PD-L1, full length, expressed on …; experiment: FACS on HEK293/PD-L1 cells
Procedure: as §3, §4

T1 sequence (Q9NZQ7 19-290 limits assumed): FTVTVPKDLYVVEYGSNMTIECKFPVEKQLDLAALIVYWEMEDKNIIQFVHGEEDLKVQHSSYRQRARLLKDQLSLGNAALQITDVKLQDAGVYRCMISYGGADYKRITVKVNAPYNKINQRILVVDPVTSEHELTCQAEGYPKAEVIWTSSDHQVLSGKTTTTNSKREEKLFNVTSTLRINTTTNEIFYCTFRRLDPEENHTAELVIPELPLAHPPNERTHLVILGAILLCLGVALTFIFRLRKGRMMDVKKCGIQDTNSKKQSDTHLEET

Binder	IC50 [1] [µg/mL]	Max inhibition [1] [%]	IL-2 release in HuT78/P3Z: IC50 [2] [µg/mL]	IL-2 release in HuT78/P3Z: Max inhibition [2] [%]	IL-2 release in HuT78/PD-1: EC50 [2] [µg/mL]	IL-2 release in HuT78/PD-1: Top line [2] [pg/mL]	IC50 [3] [µg/mL]	Max inhibition [3] [%]	Kd [4] [pM]	koff [4] [s⁻¹]	kon [4] [M⁻¹ s⁻¹]	IC50 [6] [µg/mL]	also measured
hu333-3C2 Fab (Fab, V domains shown, Human Fab format; constant parts not restated) VH: EVQLVESGGGLVQPGGSLRLSCAVSGFSLTSYGVHWVRQAPGKGLEWVAVIWAGGSTNYADSVKGRFTISKDNSKNTVYLQMNSLRAEDTAVYYCAKPYGNSAMDYWGQGTLVTVSS VL: DIQMTQSPSSLSASVGDRVTITCKASQDVGIVVAWYQQKPGKAPKLLIYWASIRHTGVPSRFSGSGSGTEFTLTISSLQPDDFATYYCQQYSNYPLYTFGQGTKVEIK	0.073	99	0.013	100	0.046	3120	0.065	100	8.09	1.15e-05	1.42e+06		
hu333-2B Fab (Fab, V domains shown, Human Fab format, His-tagged; constant parts not restated (as for hu333-1A)) VH: EVQLVESGGGLVQPGGSLRLSCAVSGFSLTSYGVHWVRQAPGKGLEWVAVIWAGGSTNYVDSVKGRFTISKDNAKNSVYLQMNSLRAEDTAVYYCAKPYGNSAMDYWGQGTLVTVSS VL: DIQMTQSPSTLSASVGDRVTITCKASQDVGIVVAWYQQKPGKAPKLLIYWASIRHTGVPSRFSGSGSGTEFTLTISSLQPDDFATYYCQQYSNYPLYTFGQGTKLEIK												0.062	IL-2 release in HuT78/P3Z: IC50 [5]: 0.011 µg/mL; IL-2 release in HuT78/PD-1: EC50 [5]: 0.054 µg/mL; IC50 [7]: 0.055 µg/mL; Kd [8]: 1.54 pM; koff [8]: 2.09e-06 s⁻¹; kon [8]: 1.36e+06 M⁻¹ s⁻¹
hu333-3A2 Fab (Fab, V domains shown, Human Fab format; constant parts not restated) VH: EVQLVESGGGLVQPGGSLRLSCAVSGFSLTSYGVHWVRQAPGKGLEWVAVIWAGGSTNYVDSVKGRLTISKDNAKNTVYLQMNSLRAEDTAVYYCAKPYGNSAMDYWGQGTLVTVSS VL: DIQMTQSPSSLSASVGDRVTITCKASQDVGIVVAWYQQKPGKAPKLLIYWASIRHTGVPSRFSGSGSGTEFTLTISSLQPDDFATYYCQQYSNYPLYTFGQGTKVEIK	0.044	99	0.014	95	0.057	2550	0.068	100	0.17	2.2e-07	1.28e+06		
hu333-1A Fab (Fab, V domains shown, Human Fab format: Vh joined to human IgG2 CH1 with C232S and C233S (Kabat numbering) and a C-terminal 8xHis tag; Vk joined to the constant region of human kappa chain) VH: EVQLVESGGGLVQPGGSLRLSCAVSGFSLTSYGVHWVRQAPGKGLEWVAVIWAGGSTNYNSALMSRLTISKDNAKNSVYLQMNSLRAEDTAVYYCAKPYGNSAMDYWGQGTLVTVSS VL: DIQMTQSPSTLSASVGDRVTITCKASQDVGIVVAWYQQKPGKAPKLLIYWASIRHTGVPSRFSGSGSGTEFTLTISSLQPDDFATYYCQQYSNYPLYTFGQGTKLEIK												0.057	IL-2 release in HuT78/P3Z: IC50 [5]: 0.012 µg/mL; IL-2 release in HuT78/PD-1: EC50 [5]: 0.066 µg/mL; IC50 [7]: 0.049 µg/mL; Kd [8]: 9.88 pM; koff [8]: 1.59e-05 s⁻¹; kon [8]: 1.61e+06 M⁻¹ s⁻¹
Murine mAb333 (antibody, V domains shown, Murine hybridoma mAb; also called mu333; Mu333) VH: QVQLKESGPGLVAPSQSLSITCTVSGFSLTSYGVHWVRQPPGKGLEWLGVIWAGGSTNYNSALMSRLSISKDNSKSQVVLKMNSLQTDDTAMYYCAKPYGNSAMDYWGQGTSVTVSS VL: DILMTQSHKFMSTSVGDTVSITCKASQDVGIVVAWYQQKPGQSPKLLIYWASIRHTGVPDRFTGSGSGTDFTLTISNVQSEDLADYFCQQYSNYPLYTFGGGTKLEIK												0.463	IL-2 release in HuT78/PD-1 cells co-cultured with HEK293/OS8/PD-L1 cells: EC50 [14]: 0.092 µg/mL; Inhibition of IL-2 secretion in HuT78/P3Z cells co-cultured with HEK293/PD-L1 cells: IC50 [15]: 0.021 µg/mL; EC50 [16]: 0.036 µg/mL; IC50 [17]: 0.052 µg/mL; EC50 [18]: 0.099 µg/mL

Now from value to binder, other results behind:

IC50 [1] [µg/mL]	Max inhibition [1] [%]	IL-2 release in HuT78/P3Z: IC50 [2] [µg/mL]	IL-2 release in HuT78/P3Z: Max inhibition [2] [%]	IL-2 release in HuT78/PD-1: EC50 [2] [µg/mL]	IL-2 release in HuT78/PD-1: Top line [2] [pg/mL]	IC50 [3] [µg/mL]	Max inhibition [3] [%]	Kd [4] [pM]	koff [4] [s⁻¹]	kon [4] [M⁻¹ s⁻¹]	IC50 [6] [µg/mL]	Binder	also measured
0.064	99	0.014	100	0.057	3020	0.071	100	34.9	4.61e-05	1.32e+06		hu333-3H2 Fab (Fab, V domains shown, Human Fab format; constant parts not restated) VH: EVQLVESGGGLVQPGGSLRLSCAVSGFSLTSYGVHWVRQAPGKGLEWVAVIWAGGSTNYADSVKGRFTISKDTSKNTVYLQMNSLRAEDTAVYYCAKPYGNSAMDYWGQGTLVTVSS VL: DIQMTQSPSSLSASVGDRVTITCKASQDVGIVVAWYQQKPGKAPKLLIYWASIRHTGVPSRFSGSGSGTEFTLTISSLQPDDFATYYCQQYSNYPLYTFGQGTKVEIK	
								3.5	1.32e-05	3.78e+06		hu333-4B2 Fab (Fab, V domains shown, Human IgG1 Fab format: Vh fused to human IgG1-CH1 with C-terminal His6 tag, Vk fused to the constant region of kappa chain) VH: EVQLVESGGGLVQPGGSLRLSCAVSGFSLTSYGVHWVRQAPGKGLEWVAVIWAGGSTNYADSVKGRFTISKDTSKNTVYLQMNSLRAEDTAVYYCAKPYGTSAMDYWGQGTLVTVSS VL: DIQMTQSPSSLSASVGDRVTITCKASQDVGIVVAWYQQKPGKAPKLLIYWASIRHTGVPSRFSGSGSGTEFTLTISSLQPDDFATYYCQQYSNYPLYTFGQGTKVEIK	Kd [9]: 2.5 pM; koff [9]: 8e-06 s⁻¹; kon [9]: 3.2e+06 M⁻¹ s⁻¹; IC50 [10]: 0.062 µg/mL; Kd [11]: 3.5 pM; koff [11]: 1.32e-05 s⁻¹; kon [11]: 3.78e+06 M⁻¹ s⁻¹; IL-2 release in HuT78/P3Z: IC50 [12]: 0.016 µg/mL; IL-2 release in HuT78/PD-1: EC50 [12]: 0.058 µg/mL; IC50 [13]: 0.053 µg/mL
								2.65	1.03e-05	3.88e+06		hu333-4A2 Fab (Fab, V domains shown, Human IgG1 Fab format: Vh fused to human IgG1-CH1 with C-terminal His6 tag, Vk fused to the constant region of kappa chain) VH: EVQLVESGGGLVQPGGSLRLSCAVSGFSLTSYGVHWVRQAPGKGLEWVAVIWAGGSTNYVDSVKGRFTISKDNAKNTVYLQMNSLRAEDTAVYYCAKPYGTSAMDYWGQGTLVTVSS VL: DIQMTQSPSSLSASVGDRVTITCKASQDVGIVVAWYQQKPGKAPKLLIYWASIRHTGVPSRFSGSGSGTEFTLTISSLQPDDFATYYCQQYSNYPLYTFGQGTKVEIK	Kd [9]: 2.91 pM; koff [9]: 9.3e-06 s⁻¹; kon [9]: 3.19e+06 M⁻¹ s⁻¹; IC50 [10]: 0.045 µg/mL; Kd [11]: 2.65 pM; koff [11]: 1.03e-05 s⁻¹; kon [11]: 3.88e+06 M⁻¹ s⁻¹; IL-2 release in HuT78/P3Z: IC50 [12]: 0.005 µg/mL; IL-2 release in HuT78/PD-1: EC50 [12]: 0.05 µg/mL; IC50 [13]: 0.05 µg/mL
